Source: patent US20260250338A1 (Molecular Partners, published 2026)

Columns and labels:
[1] = biological target: T1, CD16aV allotype of human CD16a expressed on Jurkat-Lucia-NFAT-CD16 Reporter cells (InvivoGen) (human, UniProt P08637 17-254); assay: cell-based or functional assay
[2] = biological target: T1, CD16aV allotype of human CD16a …; assay: flow cytometry on Jurkat cells expressing CD16aV, conditions as in Example 2
[3] = biological target: T2, full length human CD16b stably expressed on transduced WT Jurkat cells (human, UniProt O75015 17-200); assay: flow cytometry on Jurkat cells expressing CD16b, conditions as in Example 2
T2 construct: whole, on cells; also called CD16b expressing cells; Jurkat CD16b
T2 sequence (O75015 17-200): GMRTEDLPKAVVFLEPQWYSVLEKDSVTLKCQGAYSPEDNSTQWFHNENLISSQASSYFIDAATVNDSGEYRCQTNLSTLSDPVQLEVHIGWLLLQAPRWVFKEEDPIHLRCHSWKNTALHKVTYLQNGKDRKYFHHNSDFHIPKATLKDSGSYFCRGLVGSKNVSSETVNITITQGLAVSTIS

T1 sequence (P08637 17-254 F176V): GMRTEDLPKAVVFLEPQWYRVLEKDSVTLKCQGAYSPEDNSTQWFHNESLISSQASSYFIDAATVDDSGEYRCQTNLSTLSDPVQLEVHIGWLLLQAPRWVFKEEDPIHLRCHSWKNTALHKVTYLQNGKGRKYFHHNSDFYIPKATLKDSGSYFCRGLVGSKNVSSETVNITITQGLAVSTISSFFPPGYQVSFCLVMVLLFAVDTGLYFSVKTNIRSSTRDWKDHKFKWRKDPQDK

EC50 (pM), DDCC reporter assay (luminescence), Kasumi-1 target cells, E:T 1:1, 24 h [1]: 59.5 pM
Top (RLU), DDCC reporter assay (luminescence), Kasumi-1 target cells [1]: 36400 RLU
EC50 [2]: 25.3 nM
binding result [3]: no binding
B1: Construct 25 (SEQ ID NO: 94), CD117 × CD16a, CD117 binder SEQ ID NO: 84 N-terminal of DARPin #7 (designed binder)
chain: MRGSHHHHHHGSDLGQKLLKAAQYGQDDEVRILLAAGADVNAKDWAGKTPLHVAAEAGHLEIVEVLLKAGADVNAKDKAGETPLHLAAEQGHLEIVEVLLKAGADVNAQDEWGQTPADLAAYYGLEDIAEVLQKAAGSPTPTPTTPTPTPTTPTPTPTGSDLGQKLLRAAKKGQDDEVRELLKAGADVNAKDEQGWTPLHNAAWKGHLEIVEVLLKAGADVNAKDVFDWTPLHVAAHFGHLEIVEVLLKAGADVNAQDRAGETPADLAAQAGHEDIAEVLQKAA
notes: Bispecific DARPin; also called Construct No. 25
